The target in the test is FLAG-tagged MAGI-1L (C. elegans). Description: co-IP; COS-7 cells cotransfected with FLAG- and GST-tagged proteins; lysis in modified RIPA (50 mM Tris-HCl pH 7.4, 125 mM NaCl, 0.25% NP-40); anti-FLAG beads; blots with anti-FLAG and anti-GST, films quantified against input.

B1: GST fused to the GLR-2 cytosolic domain (GST::GLR-2) (domain or fragment)
chain: VEFLFRKNKENREKERNRMRSSRPLKPGILASCERAKQKQLQNRRTKSEEVSTPRSTLF
In turn, B1 registered a percent coimmunoprecipitated of 10%.

B2: GST fused to the GLR-2 cytosolic domain with a mutated PDZ recognition motif (GST::GLR-2AAA) (domain or fragment)
chain: VEFLFRKNKENREKERNRMRSSRPLKPGILASCERAKQKQLQNRRTKSEEVSTPRSAAA
The molecule B2 registered a percent coimmunoprecipitated of 0 to 2%.

Source of the values: paper PMC2645691.
